Results from the Human Domainome abundance scans (Beltran et al. 2025).
± gives the uncertainty stated by the source.

B1: Androgen receptor, residues 557 to 632; numbered along this chain, P10275 (parent)
chain: QKTCLICGDEASGCHYGALTCGSCKVFFKRAAEGKQKYLCASRNDCTIDKFRRKNCPSCRLRKCYEAGMTLGARKL

Variants of: B1
Test: abundance fitness (aPCA) (normalised: wild type 0, dead -1); higher = more abundant; growth selection in yeast, the domain comes from the species named
Settings: Homo sapiens

Variant	abundance fitness
A41P	-0.12 ± 0.09
A41M	-0.186 ± 0.1
A41I	-0.275 ± 0.098
A41N	-0.165 ± 0.083
A41W	-0.187 ± 0.11
A41Q	-0.081 ± 0.084
A41L	-0.047 ± 0.077
A41S	-0.041 ± 0.071
A41R	-0.051 ± 0.064
A41H	-0.279 ± 0.078
A41V	0.01 ± 0.061
A41Y	0.044 ± 0.081
A41K	-0.368 ± 0.16
A41T	-0.056 ± 0.078
N44T	-0.159 ± 0.068
N44A	-0.064 ± 0.045
N44C	-0.419 ± 0.15
N44E	-0.031 ± 0.056
N44R	-0.258 ± 0.044
N44I	-0.433 ± 0.21
N44K	-0.177 ± 0.099
N44V	-0.343 ± 0.068
N44Y	-0.274 ± 0.15
N44H	-0.229 ± 0.13

Variant	abundance fitness
N44F	-0.158 ± 0.16
N44G	0.026 ± 0.039
N44S	-0.076 ± 0.062
N44D	-0.002 ± 0.091
N44L	-0.251 ± 0.059
N44W	-0.344 ± 0.061
N44M	-0.083 ± 0.062
A73R	0.008 ± 0.059
A73L	-0.176 ± 0.073
A73I	-0.101 ± 0.14
A73E	0.013 ± 0.068
A73C	-0.297 ± 0.12
A73Q	-0.138 ± 0.1
A73S	0 ± 0.084
A73V	-0.054 ± 0.067
A73F	-0.326 ± 0.12
A73M	-0.18 ± 0.12
A73W	-0.203 ± 0.071
A73D	-0.026 ± 0.07
A73Y	-0.166 ± 0.22
A73P	-0.44 ± 0.15
A73T	-0.205 ± 0.27
A73K	-0.2 ± 0.12
A73G	-0.06 ± 0.06

Variant	abundance fitness
A73N	-0.047 ± 0.17
T70I	-0.344 ± 0.29
C46P	-0.926 ± 0.12
C46Q	-0.8 ± 0.1
C46N	-0.711 ± 0.14
C46S	-0.843 ± 0.081
C46E	-0.542 ± 0.1
C46Y	-1.06 ± 0.19
C46D	-0.495 ± 0.21
C46H	-0.38 ± 0.083
C46R	-0.892 ± 0.073
C46K	-0.735 ± 0.12
C46A	-0.904 ± 0.17
C46M	-0.914 ± 0.11
C46T	-0.713 ± 0.085
C46V	-0.942 ± 0.088
C46I	-0.784 ± 0.13
C46F	-0.912 ± 0.12
C46W	-0.878 ± 0.095
C56F	-0.938 ± 0.22
C56T	-0.562 ± 0.16
C56A	-0.533 ± 0.18
C56H	-0.804 ± 0.28
C56L	-0.498 ± 0.12

Variant	abundance fitness
C56Q	-1.01 ± 0.32
C56R	-1.02 ± 0.21
C56K	-0.848 ± 0.37
C56D	-0.663 ± 0.22
C56N	-0.968 ± 0.24
C56M	-0.662 ± 0.24
C56P	-0.812 ± 0.22
C56G	-1.05 ± 0.29
C56W	-0.964 ± 0.47
C56S	-0.776 ± 0.12
C56V	-1.15 ± 0.31
C56I	-0.782 ± 0.22
K50I	-0.26 ± 0.3
K50L	-0.027 ± 0.069
K50W	-0.227 ± 0.099
K50T	-0.068 ± 0.18
K50D	-0.403 ± 0.35
K50R	-0.068 ± 0.073
K50P	-0.007 ± 0.1
K50G	-0.146 ± 0.057
K50S	-0.13 ± 0.087
K50N	0.087 ± 0.34
K50M	-0.195 ± 0.13
K50Y	-0.124 ± 0.26

Variant	abundance fitness
K50H	-0.087 ± 0.31
K50V	-0.063 ± 0.069
K50F	-0.277 ± 0.22
K50E	-0.124 ± 0.1
K50Q	-0.075 ± 0.11
K50C	-0.103 ± 0.27
N55I	-0.075 ± 0.073
N55A	0.089 ± 0.096
N55K	0.044 ± 0.077
N55R	-0.06 ± 0.068
N55C	-0.075 ± 0.14
N55M	0.216 ± 0.11
N55Q	-0.076 ± 0.081
N55Y	-0.067 ± 0.063
N55P	-0.099 ± 0.074
N55W	-0.421 ± 0.28
N55T	-0.012 ± 0.065
N55D	0.032 ± 0.078
N55L	-0.022 ± 0.054
N55H	-0.011 ± 0.059
N55V	-0.151 ± 0.086
N55G	-0.073 ± 0.11
N55E	-0.407 ± 0.29
D49C	-0.538 ± 0.27

Variant	abundance fitness
D49S	-0.139 ± 0.063
D49I	-0.283 ± 0.22
D49W	-0.402 ± 0.099
D49V	-0.512 ± 0.1
D49M	-0.448 ± 0.21
D49R	-0.342 ± 0.081
D49Y	-0.634 ± 0.21
D49P	-0.482 ± 0.17
D49N	-0.188 ± 0.12
D49A	-0.283 ± 0.088
D49T	-0.165 ± 0.11
D49G	-0.197 ± 0.073
D49L	-0.502 ± 0.14
D49H	-0.382 ± 0.22
D49F	-0.613 ± 0.17
D49E	-0.066 ± 0.089
D49K	-0.317 ± 0.16
K63L	-0.111 ± 0.061
K63P	-0.949 ± 0.23
K63S	-0.227 ± 0.07
K63I	-0.146 ± 0.095
K63G	-0.4 ± 0.16
K63W	-0.482 ± 0.19
K63H	-0.423 ± 0.1

Variant	abundance fitness
K63Y	-0.704 ± 0.2
K63V	-0.142 ± 0.066
K63D	-0.283 ± 0.15
K63E	0.009 ± 0.19
K63T	-0.033 ± 0.068
K63R	-0.079 ± 0.071
K63M	-0.133 ± 0.1
K63A	-0.141 ± 0.084
K63N	-0.127 ± 0.1
K63F	-0.347 ± 0.12
K63Q	-0.084 ± 0.11
K63C	-0.143 ± 0.087
T47Y	-0.071 ± 0.037
T47I	-0.03 ± 0.058
T47W	-0.244 ± 0.039
T47F	-0.077 ± 0.039
T47D	-0.017 ± 0.047
T47S	-0.015 ± 0.032
T47L	-0.041 ± 0.029
T47N	-0.067 ± 0.053
T47G	-0.079 ± 0.029
T47C	-0.077 ± 0.035
T47R	-0.108 ± 0.031
T47M	-0.086 ± 0.086

Variant	abundance fitness
T47P	0.007 ± 0.035
T47E	-0.059 ± 0.041
T47Q	-0.075 ± 0.047
T47H	-0.026 ± 0.035
R52P	0.004 ± 0.063
R52H	-0.076 ± 0.078
R52E	-0.003 ± 0.091
R52K	-0.033 ± 0.11
R52V	0.041 ± 0.057
R52C	-0.087 ± 0.095
R52S	-0.087 ± 0.051
R52D	0.047 ± 0.092
R52Q	-0.063 ± 0.1
R52T	0.067 ± 0.082
R52I	-0.042 ± 0.067
R52W	-0.311 ± 0.16
R52A	-0.157 ± 0.08
R52N	-0.072 ± 0.069
R52G	-0.001 ± 0.069
R52M	-0.067 ± 0.12
R52Y	-0.09 ± 0.068
R52F	-0.164 ± 0.076
R52L	-0.044 ± 0.052
Y65G	-0.218 ± 0.064

Variant	abundance fitness
Y65W	-0.044 ± 0.11
Y65K	-0.178 ± 0.11
Y65M	-0.093 ± 0.09
Y65A	-0.158 ± 0.085
Y65D	-0.17 ± 0.17
Y65C	0.036 ± 0.11
Y65I	-0.081 ± 0.24
Y65N	-0.062 ± 0.12
Y65R	-0.117 ± 0.049
Y65F	-0.056 ± 0.1
Y65T	-0.276 ± 0.1
Y65V	0.02 ± 0.059
Y65H	-0.1 ± 0.18
Y65S	-0.208 ± 0.075
Y65L	-0.081 ± 0.073
Y65E	-0.092 ± 0.09
Y65Q	-0.037 ± 0.14
G72Q	0.089 ± 0.13
G72H	-0.046 ± 0.15
G72K	-0.134 ± 0.14
G72N	-0.136 ± 0.13
G72E	0.126 ± 0.088
G72R	-0.009 ± 0.069
G72S	-0.092 ± 0.1

Variant	abundance fitness
G72A	-0.011 ± 0.075
G72D	0.098 ± 0.11
G72W	-0.076 ± 0.12
G72L	-0.062 ± 0.068
G72C	-0.075 ± 0.13
G72F	0.06 ± 0.11
G72Y	-0.074 ± 0.13
G72V	-0.062 ± 0.075
G72T	-0.056 ± 0.12
R74K	-0.263 ± 0.27
R74N	-0.044 ± 0.1
R74G	0.05 ± 0.05
R74I	-0.317 ± 0.13
R74S	-0.032 ± 0.059
R74C	0.06 ± 0.082
R74P	0.13 ± 0.1
R74L	-0.18 ± 0.089
R74M	-0.056 ± 0.1
R74F	-0.165 ± 0.15
R74E	0.066 ± 0.1
R74Q	0.023 ± 0.1
R74H	-0.036 ± 0.12
R74V	-0.063 ± 0.068
R74T	0.088 ± 0.092

Variant	abundance fitness
R74A	-0.119 ± 0.068
C64V	-0.879 ± 0.27
C64G	-0.606 ± 0.11
C64R	-1.06 ± 0.32
C64M	-0.125 ± 0.12
C64L	-0.592 ± 0.16
C64N	-0.505 ± 0.45
C64F	-0.745 ± 0.48
C64K	-0.805 ± 0.29
C64T	-0.553 ± 0.2
C64A	-0.306 ± 0.096
L71K	0.041 ± 0.1
L71I	-0.021 ± 0.068
L71V	-0.085 ± 0.064
L71G	-0.128 ± 0.097
L71F	0.103 ± 0.073
L71T	0.073 ± 0.059
L71H	-0.164 ± 0.084
L71Y	-0.043 ± 0.065
L71P	-0.15 ± 0.075
L71E	-0.114 ± 0.15
L71Q	-0.043 ± 0.1
L71M	0.115 ± 0.078
L71A	-0.142 ± 0.095

Variant	abundance fitness
L71N	-0.129 ± 0.072
L71D	-0.185 ± 0.15
L71W	-0.151 ± 0.11
L71R	-0.25 ± 0.066
P57M	-0.09 ± 0.1
P57H	0.02 ± 0.07
P57C	0.088 ± 0.062
P57R	-0.1 ± 0.057
P57L	-0.075 ± 0.063
P57T	-0.111 ± 0.079
P57Y	-0.03 ± 0.051
P57W	0 ± 0.13
P57E	0.044 ± 0.11
P57D	0.1 ± 0.069
P57K	-0.043 ± 0.11
P57F	-0.024 ± 0.069
P57Q	-0.095 ± 0.078
P57V	-0.037 ± 0.072
P57I	-0.167 ± 0.087
P57A	-0.011 ± 0.06
S58W	-0.458 ± 0.16
S58C	0.075 ± 0.081
S58H	-0.112 ± 0.061
S58Q	-0.134 ± 0.083

Variant	abundance fitness
S58N	-0.189 ± 0.062
S58L	-0.251 ± 0.059
S58V	-0.16 ± 0.085
S58I	-0.577 ± 0.098
S58A	-0.035 ± 0.068
S58T	-0.229 ± 0.068
S58Y	-0.202 ± 0.064
S58D	-0.029 ± 0.074
S58G	0.059 ± 0.071
S58E	0.133 ± 0.12
S58R	-0.09 ± 0.059
S58P	0.013 ± 0.062
S58K	-0.125 ± 0.097
I48L	-0.204 ± 0.033
I48G	-0.362 ± 0.03
I48F	-0.226 ± 0.042
I48Y	-0.177 ± 0.043
I48M	-0.154 ± 0.058
I48D	-0.331 ± 0.059
I48P	-0.25 ± 0.041
I48H	-0.482 ± 0.058
I48Q	-0.203 ± 0.047
I48C	-0.585 ± 0.068
I48V	-0.02 ± 0.032

Variant	abundance fitness
I48E	-0.348 ± 0.05
I48N	-0.199 ± 0.043
I48S	-0.251 ± 0.032
I48W	-0.37 ± 0.041
G68D	-0.581 ± 0.47
D45I	-0.07 ± 0.1
D45V	-0.12 ± 0.062
D45P	-0.221 ± 0.29
D45C	-0.325 ± 0.21
D45Q	0.176 ± 0.13
D45L	-0.177 ± 0.075
D45E	-0.037 ± 0.082
D45A	-0.094 ± 0.074
D45T	-0.091 ± 0.1
D45F	-0.498 ± 0.24
D45W	-0.465 ± 0.25
D45K	0.101 ± 0.12
D45N	0.009 ± 0.085
D45S	-0.275 ± 0.13
D45G	-0.162 ± 0.056
D45M	-0.206 ± 0.15
D45Y	-0.176 ± 0.25
